The chains are these.
B1: CONY1, Y1 scFv monomer in which the myc tag is deleted or replaced by Lys-Ala-Lys (KAK) (scFv)
scFv: EVQLVESGGGVVRPGGSLRLSCAASGFTFDDYGMSWVRQAPGKGLEWVSGINWNGGSTGYADSVKGRFTISRDNAKNSLYLQMNSLRAEDTAVYYCARMRAPVIWGQGTLVTVSRGGGGSGGGGSGGGGSSELTQDPAVSVALGQTVRITCQGDSLRSYYASWYQQKPGQAPVLVIYGKNNRPSGIPDRFSGSSSGNTASLTITGAQAEDEADYYCNSRDSSGNHVVFGGGTKLTVLG
notes: also called CONY1 scFv; Y1-kak
B2: Y1 scFv (human single-chain Fv antibody fragment Y1) (scFv)
scFv: EVQLVESGGGVVRPGGSLRLSCAASGFTFDDYGMSWVRQAPGKGLEWVSGINWNGGSTGYADSVKGRFTISRDNAKNSLYLQMNSLRAEDTAVYYCARMRAPVIWGQGTLVTVSRGGGGSGGGGSGGGGSSELTQDPAVSVALGQTVRITCQGDSLRSYYASWYQQKPGQAPVLVIYGKNNRPSGIPDRFSGSSSGNTASLTITGAQAEDEADYYCNSRDSSGNHVVFGGGTKLTVLGAAAEQKLISEEDLNGAA
notes: Clone from the Nissim I phage display library; Used biotinylated in Western blots; detected with rabbit anti-scFv or anti-VL in FACS and ELISA; also called scFv Y1; scFv-Y1
B3: Y17 scFv (scFv)
scFv: B2 scFv with M99L, R100T, A101H, V103Y, I104F
notes: Second scFv clone selected on platelets
B4: Y1-IgG (full-size IgG1 lambda antibody built from the Y1 Fv) (antibody)
chain 1: EVQLVESGGGVVRPGGSLRLSCAASGFTFDDYGMSWVRQAPGKGLEWVSGINWNGGSTGYADSVKGRFTISRDNAKNSLYLQMNSLRAEDTAVYYCARMRAPVIWGQGTLVTVSR
chain 2: SELTQDPAVSVALGQTVRITCQGDSLRSYYASWYQQKPGQAPVLVIYGKNNRPSGIPDRFSGSSSGNTASLTITGAQAEDEADYYCNSRDSSGNHVVFGGGTKLTVLG
B5: S-S Y1 dimer (disulfide-bridged dimer of Y1 scFv with a cysteine added at the carboxy terminus) (other)
chain: EVQLVESGGGVVRPGGSLRLSCAASGFTFDDYGMSWVRQAPGKGLEWVSGINWNGGSTGYADSVKGRFTISRDNAKNSLYLQMNSLRAEDTAVYYCARMRAPVIWGQGTLVTVSRGGGGSGGGGSGGGGSSELTQDPAVSVALGQTVRITCQGDSLRSYYASWYQQKPGQAPVLVIYGKNNRPSGIPDRFSGSSSGNTASLTITGAQAEDEADYYCNSRDSSGNHVVFGGGTKLTVLGAAAEQKLISEEDLNGAAC

The target in experiment [1] is B2. The experiment is described as follows: competition ELISA, Y1 scFv on glycocalicin, peptide 1, 10, 100 μM.
Experiment [2] deals with T1, PSGL-1 (P-selectin glycoprotein ligand-1, CD162) on KG-1 cells or in KG-1 membrane preparations (human, UniProt Q14242 42-412, sulfated tyrosines in the N-terminal region).
T1 construct: whole, on cells; entries on KG-1 cells, lysates and membrane fractions are written against this molecule; also called KG-1细胞上Y1配体
T1 sequence (looked up): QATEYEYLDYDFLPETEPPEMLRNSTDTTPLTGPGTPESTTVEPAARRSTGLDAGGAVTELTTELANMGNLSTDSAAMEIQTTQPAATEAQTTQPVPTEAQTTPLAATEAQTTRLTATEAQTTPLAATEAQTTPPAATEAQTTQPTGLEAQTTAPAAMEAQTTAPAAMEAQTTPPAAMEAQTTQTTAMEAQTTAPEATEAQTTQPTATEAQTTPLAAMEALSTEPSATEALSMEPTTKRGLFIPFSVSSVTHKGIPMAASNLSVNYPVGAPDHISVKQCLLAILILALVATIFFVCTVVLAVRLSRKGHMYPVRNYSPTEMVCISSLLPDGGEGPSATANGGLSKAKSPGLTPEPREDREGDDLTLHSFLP
The experiment is described as follows: second radioreceptor competition on KG-1 cells, labelled CONY1.

The target in experiment [3] is T1, PSGL-1 (P-selectin glycoprotein …). The experiment is described as follows: Western blot.
In experiment [4] the target is T2, human lumican from plasma (human, UniProt P51884 19-338).
T2 construct: also called H P-配体2
T2 sequence (looked up): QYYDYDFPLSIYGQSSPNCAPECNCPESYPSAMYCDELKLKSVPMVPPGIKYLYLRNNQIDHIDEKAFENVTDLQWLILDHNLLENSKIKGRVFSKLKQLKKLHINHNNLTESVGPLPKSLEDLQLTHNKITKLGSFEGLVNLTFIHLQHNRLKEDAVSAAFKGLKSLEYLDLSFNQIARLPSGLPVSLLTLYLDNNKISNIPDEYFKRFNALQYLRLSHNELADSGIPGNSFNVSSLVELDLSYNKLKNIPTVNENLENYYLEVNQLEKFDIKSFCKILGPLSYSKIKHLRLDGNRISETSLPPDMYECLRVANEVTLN
Put plainly: binding to human plasma proteins.

Experiment [5] has as its target T1, PSGL-1 (P-selectin glycoprotein …). The experiment is described as follows: FACS on KG-1 cells.
Experiment [6] has the same target. Put plainly: radioreceptor competition on KG-1 cells, tracer 125I-Y1-IgG 2 ng/tube.
Experiment [7] shares this target. The experiment is described as follows: radioreceptor assay, ELISA and FACS.

Changes are numbered by the printed parent chain. Where no end group is shown, it is not given here. [ ]: non-standard residue; d: D form. sY = N[C@@H](Cc1ccc(OS(=O)(=O)O)cc1)C(=O)O

In the case of VRPEHPAETE[sY]ESL[sY]PEDDL [F-Y*Y*, sulfated peptide from the fibrinogen γ prime chain], the binding result in experiment [1] was “no binding (tested: 100μM)”.

As usually defined, the Kd is the constant that tells how readily two partners part at equilibrium. As for B1, in experiment [2], the Kd is about 1000 nM.

On to B2, for which the binding result in experiment [3] and in experiment [4] was “binds” throughout.

For B3, the binding result in experiment [5] is reported as “binds”.

In experiment [6], B4 yielded a dissociation constant (Kd) of about 20 nM.

On to VRPEHPAETEYESLYPEDDL [F-YY, non-sulfated peptide from the fibrinogen γ prime chain], for which the binding result in experiment [1] was “no binding (tested: 100μM)”.

As to B5, in experiment [2], the equilibrium dissociation constant (Kd) worked out at 50 nM and the “fold higher affinity than CONY1” value came out at 20 fold. Also, in experiment [6], binding was put at a Kd of 40 nM, the “fold higher avidity than CONY1” value is 30 fold and the “fold lower avidity than the whole Y1 antibody” value amounted to 2 fold. Besides, the “fold binding over Y1 scFv monomer” value in experiment [7] was at least 20 fold.
